Results taken from US11549134B2, “Modified amadoriase and method for producing the same, agent for improving surfactant resistance of amadoriase and composition for measuring HbA1c using the same” (Kikkoman Corporation, priority 2013, dated 2023).

Columns and labels:
[1] = Measurement of fructosyl peptide sample (αFVH) under mixing of CTAC, change in absorbance at 751 nm; type: biochemical
Procedure: The purified enzyme of CFP-T7 and CFP-D7 obtained in Example 3-2 was used to measure a sample as shown below. The activity values of CFP-T7 and CFP-D7 were determined using (reagent 1) adjusted to pH 7.0 with αFVH at a final concentration of 5 mM as a substrate according to the method for measuring amadoriase activity.
(Reagent 4) αFVH (125 mg) was dissolved in ion-exchanged water, the volume of the solution was fixed to 10 ml, and thereby a 30 mM substrate solution was obtained. In addition, the resultant was diluted by 1/714 with a CTAC solution to provide a 42 μM αFVH/0% to 0.2% CTAC solution.
(Reagent 6) (50 μl) was added to a mixed solution of 135 μl of (reagent 5) warmed at 37° C. for 5 minutes in advance and 25 μl of the sample prepared in (11) above to start reaction, and absorbance at a wavelength of 751 nm after reaction at 37° C. for 5 minutes was measured using an automated analyzer, Bio Majesty JCA-BM1650 (from JEOL Ltd.). Absorbance (reagent blank) at a wavelength of 751 nm measured by a similar operation for (reagent 4) prepared using ion-exchanged water in place of the substrate solution was used as a control to calculate the amount of change in absorbance (difference) when each sample was measured, using the following equation. The final concentration of a colorimetric substrate, DA-64, was 0.15 mM; the final concentration of αFVH in the case of the presence of a substrate was 5 μM; and the length (optical path) of the cell used for absorbance measurement was 1 cm. Amount of change in absorbance=ΔAes−Ae0
The amount of change in absorbance when αFVH/0% to 0.2% CTAC were used as samples was calculated.
The purified preparations of amadoriases obtained as described above were used as samples to measure αFVH under the mixing of CTAC using PnFX and NvFX as in Example 5.

[2] = Surfactant resistance (residual activity) of CFP-T7 single variants, 0.01% CTAC; type: biochemical; settings: 30°C, 5 minutes, 30 mM MES/21 mM Tris buffer (pH6.5), crude enzyme
Procedure: Reagent 1 (2.7 ml), reagent 2 (100 μl) and reagent 3 (100 μl) were mixed and preheated at 37° C. for 5 minutes. Then, to the mixture, an enzyme solution (100 μl) was added and thoroughly mixed. Thereafter, the absorbance of the mixture at 555 nm is measured by a spectrophotometer (U-3010, manufactured by Hitachi High-Technologies). Measurement is performed at 555 nm from one minute to three minutes and an absorbance change per minute is specified as the measurement value. A control solution is prepared in the same manner as above except that ion-exchanged water (100 μl) is used in place of reagent 3 (100 μl).
An amadoriase crude enzyme solution or an amadoriase purified sample is diluted with a 30 mM MES/21 mM Tris buffer solution (pH6.5) so as to have a concentration of about 1.0 U/ml. To this, CTAC (for example, manufactured by Tokyo Kasei Kogyo Co., Ltd.) is added so as to obtain a final concentration 0.01% (w/v) or 0.04%. The resultant mixture is heated at 30° C. for 5 minutes. After heating, the mixture is diluted double with a 10 mM phosphate buffer (pH7.0) containing 0.15% BSA to prepare a sample. The enzyme activities of the sample before and after a surfactant treatment are measured by the method described in Section B above. […] In this manner, surfactant resistance is evaluated. […]

B1: CFP-T7: amadoriase derived from the genus Coniochaeta, SEQ ID NO: 1; triple variant with mutations at positions 272, 302 and 388 (protein, listed as Coniochaeta sp.)
chain: MTSNRADTRVIVVGGGGTIGSSTALHLVRSGYAPANITVLDTFEIPSAQSAGHDLNKIMGIRLRNKVDLQMSLEARQMWKEDELFQPFFHNTGRMDCEHTPEGIEDLKKQYQALHDAGAGLEKTHAWLDNEDEILSKMPLLQRDQIQGWKAIWSQDGGWLAAAKAINAIGQFLKERGVKFGFGGAGSFKQPLFDDEGTTCIGVETADGTKYYADKVVLAAGAWSPTLVDLEDQCCSKAWVYAHIQLTPEEAAEYKGVPVVYNGEFGFFFEPDEFGVIKVCDEFPGFSRFKEHQPYGAPSPKRISVPRSHAKHPTDTYPDASEVSIKKAIATFLPRFQDKELFNRALCWCTDTADAALLMCEHPKWKNFILATGDSGHSFKILPNVGKYVVELIEGRLPEEMAYQWRWRPGGDALKSRRAAPPKDLADMPGWKHDPKL
For B1, the “Amount of Change in Absorbance at Wavelength of 751 nm under Mixing of Each Concentration of CTAC” value (shortened to “Amount of Change in Absorbance”) ([1]; Mixing of CTAC 0%, as in Example 5, Table 7) was 0.150, the “Amount of Change in Absorbance” value ([1]; Mixing of CTAC 0%, αFVH final 5 μM, 37°C, 5 minutes, Table 5) was 0.150 and the “Amount of Change in Absorbance” value ([1]; Mixing of CTAC 0.005%, αFVH final 5 μM, 37°C, 5 minutes, Table 5) was 0.111. For the same molecule, the “Amount of Change in Absorbance” value ([1]; Mixing of CTAC 0.01%, as in Example 5, Table 7) was 0.077, the “Amount of Change in Absorbance” value ([1]; Mixing of CTAC 0.01%, αFVH final 5 μM, 37°C, 5 minutes, Table 5) was 0.077 and the “Amount of Change in Absorbance” value ([1]; Mixing of CTAC 0.02%, as in Example 5, Table 7) was 0.031. The “Amount of Change in Absorbance” value ([1]; Mixing of CTAC 0.02%, αFVH final 5 μM, 37°C, 5 minutes, Table 5) was 0.031, the “Amount of Change in Absorbance” value ([1]; Mixing of CTAC 0.04%, as in Example 5, Table 7) was 0.005 and the “Amount of Change in Absorbance” value ([1]; Mixing of CTAC 0.04%, αFVH final 5 μM, 37°C, 5 minutes, Table 5) was 0.005. The “Residual Activity(%)” value [2] was 69.9%.
